Experimental data as given in the DeepSol protein solubility set.

assay: soluble on expression in E. coli; label from the status in PepcDB or PDB records

Sequence	soluble on expression in E. coli
MDEGMQIVGAVSGLSTPFNQNVSLECYNGILSMLLNGAPLADILHALVLKIEDQRLGTHASVLLLSEDGKRVLTGAAPHLPDSYNQVIHGVEIGPEVGSCGTAAYTGQRVIVEDIEHHPYWALYKSFALVHGLRACWSEPIKDTQGKVLGTFAMYYKEIKSPTVADLTLIAEAARLASLAIERSRSLEFQRLAVKIFDRLPLALVITNASHSVLYANDAFKLMVCLQPDDILAFNPEQFFSPSEPHEIASLFNHLSEGKMWQGELVGLRNNGETFYLDLTVTVFRESHSADLGFAWLFSDVSERKKAAQLIKYQANNDSLTGLANRNALFRQIQELINADSLTPGFSFMLMDLDNFKQVNDTYGHDKGDVLLVQMVEQVKICLDPQAVFARLGGDEFAILLPGVVTQRELSQLADKINKQVYRRYELSHDKGVYSSVSIGIARFPEDALDLEQLLNCADQAMYISKANGRNRYHFFTEQMQQNAERIANLHTLLKQALEQNAFELYFQPIVDATTGLIVRAEVLLRWQHEGQFISPDEFIPIAENSGLIVSIGRCVRQAVMQTIVEMQALGWPMSLAINVSTFEFWSHELQDEFCDSFTDIIEGLGVEDFPYELITLEITESLLMKKHAHLIQVLNELRARGIKISLDDFGTGYSSLSYLANFPIDQIKIDKSFIDRLAEGERHLALIEAIVRLSHALNLRVTAEGVETQEQLQVMMDNHIQEIQGYLFYKPIPKAVFFELLAKQAVISPHSLEHHHHHH	not soluble
MDENALRFASYWRNSLADAESGKGCFERKDAQNFTHWHGIAAGRLDEAIVNKFFKGEKDDVETVNVILRPKVYFRLLQHGKDRSAGTPDIVTPIVTPALLSREGFLYPTPATSIPRDLLEPLPKGAFSIGEIGQYDKYKTTHTDPTHVMWTRP	not soluble
MDFEQLKQDVIAYSKTIGIDKIGFASASPFEELKQRLIQQQQLNYQSGFEEPDIEKRTNPQLLLPGAKSIIAIALAYPSKLKNAPLSKRGERRGIFCRASWGQDYHLVLRDRLQKLEAYLIEKLPDIEVKSMVDTGELSDRAVSERAGIGWSGKNCSIITPEFGSYVYLGEMITNVPFPPDKPIEDQCGGCTKCIDICPTGALIQGGQLDSKKCIAFLTQTKGFLPEEYRDKIGNRIYGCDTCQTVCPKNKGMDFHNHPEMEPDPELVKPLLTPLLTISNRDFKEKYGIMSGSWRGKKPLQRNAILALAHFKEASAIPDLIGVMKDDPRPVLRGTAAWALGKIGGDGVGEAIEKAMEREKDEEVLHEMNRGLELLAQKKE	not soluble
MDFKASGTKFKKTGKKVVPAKAFEEIVQTNRDVLKKSAFLSDLLENLQPHLNNIKKIRCVAIGNFKEDFPATYQFALLLEITDYIKSEDERDVVVSLYDPIFTKEEIQYLKSLGSKWLIEEEFSENDAIDYESVLYFLPHAPLDLTENILSSQRPHLWLANNMISHTDRYTKAKLCENYPNLSKLVHYLQTNAPPEVKKAHDVDGFATFIPKRKRKNRNNSSKLKVTPSDIDYDSIAPKFKSCQILTDFDEGKYLKEKPWINSFSDLTLHAIEY	not soluble
MDGAQPKTNFFERLIARLAREPDSAEDVLNLLRQAHEQEVFDADTLTRLEKVLDFAELEVRDAMITRSRMNVLKENDSIERITAYVIDTAHSRFPVIGEDKDEVLGILHAKDLLKYMFNPEQFHLKSVLRPAVFVPEGKSLTALLKEFREQRNHMAIVIDEYGGTSGLVTFEDIIEQIVGDIEDEFD	soluble
MDGELRAQGLRKRYGPKEVVRGVDLALRRGEIVALFGPNGAGKTTTFYMVVGFIRPTGGRIYLKGQEITALPMYKRARLGLGYLPQEPSAFRRMTALENLLAVLEFQPLSKKERLEKAKALLEELSIYHLRDRMAYSLSGGERRRLEIARALATDPDFLLLDEPFTGVDPKNVREIQKVIAELRERRGVGVFITDHAVRETLAITDRVYLMYDGQVLFHGDPETFAKDQGVRRHYLGEDYEL	soluble
MDGFDASPKAIAARRAKVFDPVGGYEYFVNTYFPHYIRSPEKSELHAFLFSRLPEIIRSPKGENEAVGAPRGEGKSTKVTQLFTLWCIVTGQKHYAVIVMDSIDQAYPMLEAIKAELEFNPRLKTDFPEVCGQGRVWQAGTIVTANDVKVQVAGSGKKLRGLRHGPYRPDLTVLDDIENDEQVRNPEQRDKLNAWLTKTVLPLGGVGQKYDVIYIGTILHYDSVLNRTLNNPFWHGIKFKAMKRWPDRMDLWDRWEELFRNDGETVAEAFYQANKDEMERGAVTSWAARGVLALMKIRARDGHATFDSEYQNDPVSGEDAPFAKSMKFWNDLPSDLVYFGALDPSLGKAGASRDPSAIIIGGYQRVTGKLYVVEAQIKKRLPDLIIEDVIRLHRQYRCKLWFVETVQFQEFLKDELVKRSAARGIPVPARAVKPVSDKLLRIETLQPHMANGLILLNESQQTLIQQFRHFPKADHDDGPDAVHMLWSGAVANCVPIEWQSPTDNDFDDEIKSKWSR	not soluble
MDHQLSQHDIFISQDGQLQLTVAVDTETVWLTQAEICVLFDRERSVITKHINNVFKEGELERDSVCAIFARTADDGKTYQTQYFNLDVIISVGYRVKSKRGVQFRQWATNTLKQHLLQGYTLNQQRLVQRGIEFNQALALLSKTLTNQALINPDGQAVVNVIAEYARSWSLLQGYDEQSLTEITHKQQQMQPLALDEVLAAIAALKTNLIAKGEATDLFAQLRGNGLASSIATIEQGFGGEWFYPNVASRAAHLLYFIIKNHPFADGNKRTGSFLFLWYLQQNQHLLAKPVSEQINDTTLVALALLVAESLPDQKELMIRLIEHFILLKDSEAAALEHHHHHH	soluble
MDIAKWVEHARTCYSTQLDTKIKVIGVIGKDYPDHGKGDNINCYLRENVFPVAATEDETCTIRGHFSEDDQILFLVMNGVDDVANIRKCLKSNPKSNYFDAMAESECQQIRMLHFLFISCHFIIIFEQTSRIDLELMRFLKKVNSARIQLRKKINQRLVASDLRDVSFNNRILSSAESEGRMVVPRLLIAFQRNNIRPDVNPGKKRELYEKLEKNLDNQFSDILKLYDLIDCGASSLCQLNETIPVVHLLNPKIVKRDIIGEMFEILMADAENTKISGNAGTLPSNNSFVKFLEDNFRSEKNEISLENVIELMNCLQCVLDGDLEEKHEKTAIQTFIKRIQNDHMEEARRLYTNAQRPGERRGADRFKDSEKPVKIRSKEEHLMRVEKPKKFCIFISFQNVLQFNEATHYIDSVVGVNSREALSQLQAQCNEMWQSDMRACESVSMMGRSCVRKIHPTFGDQTAPEHRWTAHDASNTMISTCVCGRKQLIRPEPFSVKEANSDFYDHPDFKCCRRLWRYQFQLYQEDSEEKDDIMWADRESNSLRAAKKMAQREDELAEEDTDLDIPESLLDPDSTSPSDEDDVRVRTMSSSESSSQESDAYLRPTSRRDESMASKTERELTIDHVKRMQKLELAGKSEDFLITVPNSMTTGKLPIFPSWHLTSLGDSSIYSHGAGLKNQPNFKIGGDYLSPVVVLLDVNFDVWNRDLNKIRSEDFSRKCGKDNKDDSARVKLFVGFEYECSRGHRFFVDYNGEPLIYSKGSNVIRESAHRSSLGNVLQADLPIRRPCTCRKLPLQSAQLQKVHVVTPKAPVHITIDPKVLIPTHEGVYGTGQEPLELHHSKYYILHLPTVYSGPSGAWMPGEFNPEKQGVWMGGALKVAYKPVMSFKW	not soluble
MDIDMNYPSITTLMSNESANLLIIWGNATPDISYLSYTTNPMLGDYVLNVSAINGCTEELIATHLVPTLENATQWVYDAGEYWDNYSFTDESTPLPGLSWPFNE	not soluble
MDIIRLGDTTSHGGTVIEAFGQTDLNGKPMAGVGHQVVCPLCKGTFPITEGSALLDVNGVPVALHGMKTACGASLIASGPLGAAEN	not soluble
MDIMQGPSESFVDFANRLIKAVEGSDLPPSARAPVIIDCFRQKSQPDIQQLIRTAPSTLTTPGEIIKYVLDRQKTAPLTDQGIAAAMSSAIQPLIM	soluble
MDIRPARISDLTGMQNCNLHNLPENYQLKYYLYHAISWPMLSYVATDPKGRVVGYVLAKMEEEPKDGIPHGHITSVSVMRSYRHLGLAKRLMVQSQRAMVEVYGAKYMSLHVRKSNRAAIHLYRDTLQFDVQGIESKYYADGEDAYAMHKDFSTLKFDTPETNDELAKTVQSLALNN	soluble
MDISVVVPTLNGREELTGCLDALTEQVPDAEVIVVNGPSADGTTGMVRDRDDVSLLVEIADRSVTVARNAGIDRATGDVIALVHQSLSVESGWADAVKDGLSGAAQAITGPTHQQLWAGMTTETEETRTIAGRDVTYFNPGNVAFDAEVVEALDGFDEYLNVGSARDFAHRMAAGEYGVDWSTEMCVSREFEADGGIAETDWNWKYRSLAYRLVKNYNVRPTVVRRILSHAVGDAKDALFDVVRGETTPSQWLGTGQDVFGGVGSGIVDGVRARVTDRTARRNPNGRSARTNRAVTVYDWRLEHHHHHH	not soluble
MDIWYGTAAVPKDLDNSAVTIGVFDGVHRGHQKLINATVEKAREVGAKAIMVTFDPHPVSVFLPRRAPLGITTLAERFALAESFGIDGVLVIDFTRELSGTSPEKYVEFLLEDTLHASHVVVGANFTFGENAAGTADSLRQICQSRLTVDVIDLLDDEGVRISSTTVREFLSEGDVARANWALGRHFYVTGPVVRGAGRGGKELGFPTANQYFHDTVALPADGVYAGWLTILPTEAPVSGNMEPEVAYAAAISVGTNPTFGDEQRSVESFVLDRDADLYGHDVKVEFVDHVRAMEKFDSVEQLLEVMAKDVQKTRTLLAQDVQAHKMAPETYFLQAES	soluble
MDIYERQVRVEAPLAEVWKFHATGDGLVALTPDWMNIRIEAERGPDGEPNPDELTAGSVVESSIKPFGVPPRQQWVSNIVAREEGEDEAMFRDVMEEGPFPHWEHTHTFRALSDRETLVHDHVEFELPGGPLGRALGPFGCLGMEPMFRYRHQQTKKLLEGLEHHHHHH	not soluble
MDIYVCTVCGYEYDPAKGDPDSGIKPGTKFEDLPDDWACPVCGASKDAFEKQ	soluble
MDKKSKLINLLKEVGCIRFGEFILASGKKSNYYIDIKKATTNPEILKLVGEIIAEQIKDEDVKVAGVELGSVPIATAVSIIAQKPLLIVRKKPKDYGTKNKIEGELKEGDKVVIVEDVTTTGGSVLKAVKEIRENGGIVDKVFVVVDRLEGAKENLQKENVELIPLVTVKELQSTQ	soluble
MDKLNKITVPASQKLRQLQKMVHDIKNNEGGIMDKIKKLKVKGPPSVPRRDYALDSPADEEEQWSDDFDSDYENPDEHSDSEMYVMPAEETGDDSYEPPPAEQQTRVVHPALPFTRGEYVDNRSSQRHSPPFSKTLPSKPSWPSAKARLASTLPAPNSLQKPQVPPKPKDLLEDEADYVVPVEDNDENYIHPRESSPPPAEKAPMVNRSTKPNSSSKHMSPPGTVAGRNSGVWDSKSSLPAAPSPLPRAGKKPATPLKTTPVPPLPNASNVCEEKPVPAERHRGSSHRQDTVQSPVFPPTQKPVHQKPVPLPRFPEAGSPAADGPFHSFPFNSTFADQEAELLGKPWYAGACDRKSAEEALHRSNKDGSFLIRKSSGHDSKQPYTLVAFFNKRVYNIPVRFIEATKQYALGKKKNGEEYFGSVVEIVNSHQHNPLVLIDSQNNTKDSTRLKYAVKVS	soluble
MDKQLEAARKFLKDNVRQMVDFSQTAQNRRVPPPPIEKPMPEEAKTIPLPVIGKAKSAGNIDLWSAIGQRESCRFYADEPMSLDELSLLLWATQGVRLKLDAGHALRTVPSAGCRHAFETYLCVLNVESLDKGIYRYLPLEHALLCSHAPEKLESRIVRATLGQRFTGDAAVVFVWTAIPYRMEWRYGLAAHKVIALDAGHVCQNLYLACEAIGAGTCAIAAYDQDEMDRLLDVDGEEEFTIYLAPVGKKG	not soluble
MDKVYLTWWQVDRAIFALAEKLREYKPDVIIGVARGGLIPAVRLSHILGDIPLKVIDVKFYKGIDERGEKPVITIPIHGDLKDKRVVIVDDVSDTGKTLEVVIEEVKKLGAKEIKIACLAMKPWTSVVPDYYVFRTEKWIVFPWEEFPVIEKE	soluble
